Results from article PMC4569573.

Legend:
[1] = molecular target: human AmphiphysinII/Bin1 N-BAR domain (human); assay: double-mixing stopped-flow N assay (fluorescence); unfolded in 4 M urea, refolding at 1 to 5 μM N-BAR in 0.66 M urea for 0.1 to 300 s, then unfolding in 4.5 M urea; λ2 from the amplitudes of the fast unfolding phase λ5; 15°C; step: monomers to dimeric intermediate I2
[2] = molecular target: human AmphiphysinII/Bin1 N-BAR domain (human); assay: stopped-flow refolding kinetics, single mixing (fluorescence); unfolded in 4 M urea, refolding by 11-fold dilution to 0.4 M urea, 0.1 to 5 μM N-BAR, 20 mM Na phosphate, 100 mM NaCl, pH 7.4, 15°C; step: two monomeric intermediates I to dimeric intermediate I2; λ2 fixed to the value from fluorescence anisotropy

For “human AmphiphysinII/Bin1 N-BAR domain (domain or fragment)”, the λ2, second-order rate constant of the dimerization step at 0.66 M urea, 1 μM N-BAR [1] was 260000 M⁻¹ s⁻¹, the λ2, second-order rate constant of the dimerization step at 0.66 M urea, 2 μM N-BAR [1] was 480000 M⁻¹ s⁻¹ and the λ2, second-order rate constant of the dimerization step at 0.66 M urea, 5 μM N-BAR [1] was 430000 M⁻¹ s⁻¹. It also gave a λ2, second-order rate constant of the dimerization step at 0.4 M urea [2] of 620000 M⁻¹ s⁻¹.
